B1: ADP371 (protein)
chain: MRRAWILLTLGLVACVSAESRAELTSDKDMYLDNSSIEEASGVYPIDDDDYASASGSGADEDVESPELTTSRPLPKILLTSAAPKVETTTLNIQNKIPAQTKSPEETDKEKVHLSDSERKMDPAEEDTNVYTEKHSDSLFKRTE
modifications: bait human Fc-tagged dimer
B2: ADP357 (protein)
chain: MGPPSAPPCRLHVPWKEVLLTASLLTFWNPPTTAKLTIESTPFNVAEGKEVLLLAHNLPQNRIGYSWYKGERVDGNSLIVGYVIGTQQATPGPAYSGRETIYPNASLLIQNVTQNDTGFYTLQVIKSDLVNEEATGQFHVYPELPKPSISSNNSNPVEDKDAVAFTCEPEVQNTTYLWWVNGQSLPVSPRLQLSNGNMTLTLLSVKRNDAGSYECEIQNPASANRSDPVTLNVLYGPDGPTISPSKANYRPGENLNLSCHAASNPPAQYSWFINGTFQQSTQELFIPNITVNNSGSYMCQAHNSATGLNRTTVTMITVSGSAP
modifications: bait human Fc-tagged dimer
B3: ADP266 (protein)
chain: EEFRPEMLQGKKVIVTGASKGIGREMAYHLAKMGAHVVVTARSKETLQKVVSHCLELGAASAHYIAGTMEDMTFAEQFVAQAGKLMGGLDMLILNHITNTSLNLFHDDIHHVRKSMEVNFLSYVVLTVAALPMLKQSNGSIVVVSSLAGKVAYPMVAAYSASKFALDGFFSSIRKEYSVSRVNVSITLCVLGLIDTETAMKAVSGIVHMQAAPKEECALEIIKGGALRQEEVYYDSSLWTTLLIRNPCRKILEFLYSTSYNMDRFINK
modifications: bait human Fc-tagged dimer
B4: ADP349 (protein)
chain: MAAAGPRRSVRGAVCLHLLLTLVIFSRAGEACKKVILNVPSKLEADKIIGRVNLEECFRSADLIRSSDPDFRVLNDGSVYTARAVALSDKKRSFTIWLSDKRKQTQKEVTVLLEHQKKVSKTRHTRETVLRRAKRRWAPIPCSMQENSLGPFPLFLQQVESDAAQNYTVFYSISGRGVDKEPLNLFYIERDTGNLFCTRPVDREEYDVFDLIAYASTADGYSADLPLPLPIRVEDENDNHPVFTEAIYNFEVLESSRPGTTVGVVCATDRDEPDTMHTRLKYSILQQTPRSPGLFSVHPSTGVITTVSHYLDREVVDKYSLIMKVQDMDGQFFGLIGTSTCIITVTDSNDNAPTFRQNAYEAFVEENAFNVEILRIPIEDKDLINTANWRVNFTILKGNENGHFKISTDKETNEGVLSVVKPLNYEENRQVNLEIGVNNEAPFARDIPRVTALNRALVTVHVRDLDEGPECTPAAQYVRIKENLAVGSKINGYKAYDPENRNGNGLRYKKLHDPKGWITIDEISGSIITSKILDREVETPKNELYNITVLAIDKDDRSCTGTLAVNIEDVNDNPPEILQEYVVICKPKMGYTDILAVDPDEPVHGAPFYFSLPNTSPEISRLWSLTKVNDTAARLSYQKNAGFQEYTIPITVKDRAGQAATKLLRVNLCECTHPTQCRATSRSTGVILG
modifications: bait human Fc-tagged dimer
B5: ADP355 (protein)
chain: MALLLLHPAFQSCLLLTLLGLWRTTPEAHASSLGAPAISAASFLQDLIHRYGEGDSLTLQQLKALLNHLDVGVGRGNVTQHVQGHRNLSTCFSSGDLFTAHNFSEQSRIGSSELQEFCPTILQQLDSRACTSENQENEENEQTEEGRPSAVEVWGYG
modifications: bait human Fc-tagged dimer
B6: ADP381 (protein)
chain: SQEKNKNANSSPVASTTPSASATTNPASATTLDQSKAWNRYRLPNTLKPDSYRVTLRPYLTPNDRGLYVFKGSSTVRFTCKEATDVIIIHSKKLNYTLSQGHRVVLRGVGGSQPPDIDKTELVEPTEYLVVHLKGSLVKDSQYEMDSEFEGELADDLAGFYRSEYMEGNVRKVVATTQMQAADARKSFPCFDEPAMKAEFNITLIHPKDLTALSNMLPKGPSTPLPEDPNWNVTEFHTTPKMSTYLLAFIVSEFDYVEKQASNGVLIRIWARPSAIAAGHGDYALNVTGPILNFFAGHYDTPYPLPKSDQIGLPDFNAGAMENWGLVTYRENSLLFDPLSSSSSNKERVVTVIAHELAHQWFGNLVTIEWWNDLWLNEGFASYVEYLGADYAEPTWNLKDLMVLNDVYRVMAVDALASSHPLSTPASEINTPAQISELFDAISYSKGASVLRMLSSFLSEDVFKQGLASYLHTFAYQNTIYLNLWDHLQEAVNNRSIQLPTTVRDIMNRWTLQMGFPVITVDTSTGTLSQEHFLLDPDSNVTRPSEFNYVWIVPITSIRDGRQQQDYWLIDVRAQNDLFSTSGNEWVLLNLNVTGYYRVNYDEENWRKIQTQLQRDHSAIPVINRAQIINDAFNLASAHKVPVTLALNNTLFLIEERQYMPWEAALSSLSYFKLMFDRSEVYGPMKNYLKKQVTPLFIHFRNNTNNWREIPENLMDQYSEVNAISTACSNGVPECEEMVSGLFKQWMENPNNNPIHPNLRSTVYCNAIAQGGEEEWDFAWEQFRNATLVNEADKLRAALACSKELWILNRYLSYTLNPDLIRKQDATSTIISITNNVIGQGLVWDFVQSNWKKLFNDYGGGSFSFSNLIQAVTRRFSTEYELQQLEQFKKDNEETGFGSGTRALEQALEKTKANIKWVKENKEVVLQWFTENSK
modifications: bait human Fc-tagged dimer
B7: ADP129 (protein)
chain: MFPFYSCWRTGLLLLLLAVAVRESWQTEEKTCDLVGEKGKESEKELALVKRLKPLFNKSFESTVGQGSDTYIYIFRVCREAGNHTSGAGLVQINKSNGKETVVGRLNETHIFNGSNWIMLIYKGGDEYDNHCGKEQRRAVVMISCNRHTLADNFNPVSEERGKVQDCFYLFEMDSSLACSPEISHLS
modifications: bait human Fc-tagged dimer
B8: ADP278 (protein)
chain: IQAKLIFLNFVRVPYFIDLKKPQDQGLNHTCNYYLQPEEDVTIGVWHTVPAVWWKNAQGKDQMWYEDALASSHPIILYLHGNAGTRGGDHRVELYKVLSSLGYHVVTFDYRGWGDSVGTPSERGMTYDALHVFDWIKARSGDNPVYIWGHSLGTGVATNLVRRLCERETPPDALILESPFTNIREEAKSHPFSVIYRYFPGFDWFFLDPITSSGIKFANDENVKHISCPLLILHAEDDPVVPFQLGRKLYSIAAPARSFRDFKVQFVPFHSDLGYRHKYIYKSPELPRILREFLGKSEPEHQH
modifications: bait human Fc-tagged dimer
B9: ADP140 (protein)
chain: MELRVLLCWASLAAALEETLLNTKLETADLKWVTFPQVDGQWEELSGLDEEQHSVRTYEVCDVQRAPGQAHWLRTGWVPRRGAVHVYATLRFTMLECLSLPRAGRSCKETFTVFYYESDADTATALTPAWMENPYIKVDTVAAEHLTRKRPGAEATGKVNVKTLRLGPLSKAGFYLAFQDQGACMALLSLHLFYKKCAQLTVNLTRFPETVPRELVVPVAGSCVVDAVPAPGPSPSLYCREDGQWAEQPVTGCSCAPGFEAAEGNTKCRACAQGTFKPLSGEGSCQPCPANSHSNTIGSAVCQCRVGYFRARTDPRGAPCTTPPSAPRSVVSRLNGSSLHLEWSAPLESGGREDLTYALRCRECRPGGSCAPCGGDLTFDPGPRDLVEPWVVVRGLRPDFTYTFEVTALNGVSSLATGPVPFEPVNVTTDREVPPAVSDIRVTRSSPSSLSLAWAVPRAPSGAVLDYEVKYHEKGAEGPSSVRFLKTSENRAELRGLKRGASYLVQVRARSEAGYGPFGQEHHSQTQLDESEGWREQLAL
modifications: bait human Fc-tagged dimer

These binders were tested against Circumsporozoite protein (CSP) (Plasmodium falciparum (isolate 3D7), UniProt Q7K740) (assay: AVEXIS screen signal:noise (double-corrected)).
Circumsporozoite protein (CSP), sequence (Q7K740 19-374): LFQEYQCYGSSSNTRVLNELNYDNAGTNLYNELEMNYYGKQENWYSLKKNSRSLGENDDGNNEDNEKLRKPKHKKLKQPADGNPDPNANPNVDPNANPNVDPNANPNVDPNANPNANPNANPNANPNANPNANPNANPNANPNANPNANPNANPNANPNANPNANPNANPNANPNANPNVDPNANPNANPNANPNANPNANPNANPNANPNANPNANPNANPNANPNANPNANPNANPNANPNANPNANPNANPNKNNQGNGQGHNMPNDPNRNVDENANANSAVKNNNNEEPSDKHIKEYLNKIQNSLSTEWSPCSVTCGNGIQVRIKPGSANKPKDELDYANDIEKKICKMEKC

Row | Binder | binding score
1 | B1 | 1.57
2 | B2 | 0.755
3 | B3 | 0.642
4 | B4 | 0.666
5 | B5 | 0.935
6 | B6 | 0.803
7 | B7 | 1.25
8 | B8 | 0.76
9 | B9 | 1.91

— article PMC11098746 (2024)
